Assays:
Experiment in all cases: X-ray crystallography; UMPNPP, Mg2+; Crystals: DNA mixed with ~10 mg/mL protein (4:1 molar) on ice 1 h; cryoprotectant/soak 100 mM HEPES pH 7.5, 20% PEG 4000, 10 mM MgCl2, 50 mM NaCl, 5% glycerol
hPol μΔ2 G433A = hPol μΔ2 G433A (human, UniProt Q9NP87 132-397+=G+411-494, G433A;internal_change)
hPol μΔ2 W434A = hPol μΔ2 W434A (human, UniProt Q9NP87 132-397+=G+411-494, W434A;internal_change)
[1] = target: hPol μΔ2 wildtype (DNA polymerase mu catalytic domain, Loop2 deleted) (human, UniProt Q9NP87 132-397+=G+411-494, internal_change)
hPol μΔ2 wildtype (DNA polymerase mu catalytic domain, Loop2 deleted), sequence (Q9NP87 other isoform, or with tags, fused parts or gaps | mutant): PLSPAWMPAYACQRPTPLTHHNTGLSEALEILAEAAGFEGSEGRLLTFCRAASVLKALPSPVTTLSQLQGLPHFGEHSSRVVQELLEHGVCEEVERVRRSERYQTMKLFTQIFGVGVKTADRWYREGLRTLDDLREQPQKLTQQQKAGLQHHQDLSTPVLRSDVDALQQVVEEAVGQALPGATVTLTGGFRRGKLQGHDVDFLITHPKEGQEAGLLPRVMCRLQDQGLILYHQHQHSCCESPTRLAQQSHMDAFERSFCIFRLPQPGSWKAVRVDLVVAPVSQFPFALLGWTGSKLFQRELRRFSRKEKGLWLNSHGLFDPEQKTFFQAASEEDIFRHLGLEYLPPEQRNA

Measured: binding result

hPol μΔ2 G433A, sequence (Q9NP87 other isoform, or with tags, fused parts or gaps G433A/| G433A G433A): as the sequence (Q9NP87 other isoform, or with tags, fused parts or gaps | mutant) above, with G290A counted along it
hPol μΔ2 W434A, sequence (Q9NP87 other isoform, or with tags, fused parts or gaps W434A/| W434A W434A): as the sequence (Q9NP87 other isoform, or with tags, fused parts or gaps | mutant) above, with W291A counted along it

B1: 1-nt gapped DNA (pre-catalytic) (dsDNA)
DNA 1: CGGCATACG
DNA 2: CGTA
DNA 3: GCCG
modifications: 5'-phosphate on downstream primer GCCG
binds: all assays above

From article PMC5587726
